Columns and labels:
[1] = target: T1, swine (Microminipig) CD4.A expressed on transfected HEK293 cells (Sus scrofa, Microminipig, allele CD4.A, UniProt A0A0M3VH80, strain); test: flow cytometry on cells; HEK293 transfected with CD4.A or CD4.B (mVenus co-expressed) stained with hybridoma clone supernatant, then anti-mouse IgG-APC; settings: partners not purified
T1 construct: CD4 allele CD4.A of the Microminipig; also called CD4.A transfectant; source: HEK293, transfected (S/MAR episomal vector, mVenus co-expressed), on cells

[2] = target: T2, swine (Microminipig) CD4.B expressed on transfected HEK293 cells (Sus scrofa, Microminipig, allele CD4.B, UniProt A0A0M4UHP2, strain); test: as above; settings: partners not purified
T2 construct: CD4 allele CD4.B of the Microminipig; five replacements between the alleles are printed (T61I, G65R, G66S, G68R, T73K); also called CD4.B transfectant; source: HEK293, transfected (S/MAR episomal vector, mVenus co-expressed), on cells

[3] = target: T3, CD4.A, endogenous in CD4.A (+/+) Microminipig cells (Sus scrofa, Microminipig, allele CD4.A …, UniProt A0A0M3VH80, strain); test: flow cytometry on cells; CD4.A (+/+) and CD4.B (+/+) swine PBMCs stained with the purified mAb and anti-mouse IgG-APC (b1D7) or anti-mouse IgG2a-FITC (x1E10); lymphocyte gate; isotype control; settings: one partner purified
T3 construct: CD4 allele CD4.A of the Microminipig, as in animals genotyped CD4.A (+/+) by PCR-RFLP; allele mRNA LC064059; also called CD4.A (+/+) swine PBMCs; CD4.A (+/+) spleen; source: endogenous, CD4.A (+/+) Microminipig PBMCs and spleen tissue sections

[4] = target: T4, CD4.B, endogenous in CD4.B (+/+) Microminipig cells (Sus scrofa, Microminipig, allele CD4.B …, UniProt A0A0M4UHP2, strain); test: as above; settings: one partner purified
T4 construct: CD4 allele CD4.B of the Microminipig, as in animals genotyped CD4.B (+/+) by PCR-RFLP; allele mRNA LC064060; also called CD4.B (+/+) swine PBMCs; CD4.B (+/+) spleen; source: endogenous, CD4.B (+/+) Microminipig PBMCs and spleen tissue sections

[5] = target: T1, swine (Microminipig) CD4.A expressed on …; test: flow cytometry on cells; HEK293 transfected with CD4.A or CD4.B stained with biotinylated x1E10 and streptavidin PE-Cy7; settings: one partner purified
[6] = target: T2, swine (Microminipig) CD4.B expressed on …; test: as above; settings: one partner purified

binding result [1] | binding result [2] | binding result [3] | binding result [4] | binding result [5] | binding result [6] | Binder
binds | binds | binds | binds |  |  | anti-swine CD4.AB mAb x1E10 (antibody, V domains shown, IgG2a kappa; also called x1E10 (1C3-1E8); anti-CD4AB mAb; source: mouse hybridoma (BALB/c splenocytes fused with P3-X63-Ag8-U1), clone supernatant; purified mAb) VH: DVQLQESGPGLVKPSQSLSLTCTVTGYSIISDYAWNWIRQFPGNKMEWMGYILYSGTTNYNPSLKSRISITRDTSKNQFFLQLNSVTTEDTATYYCARRTYYDYDYYGMDYWGQGTSVTVSS VL: DVLMTQIPLSLPVSLGDQASISCRSSQTIVHSLGNTYLEWYLQKPGQSPKLLIYKVSNRFSGVPDRFIGSGSGTDFTLKITRVEAEDLGVYYCFQGSHVPWTFGGGTKLEIK
 |  |  |  | binds | binds | biotinylated x1E10 mAb (antibody, V domains shown, as the heavy chain of m2; as the light chain of m2; IgG2a kappa; same antibody as m2 with a biotin label; also called x1E10 labeled with biotin; source: mouse hybridoma x1E10; biotinylated with Biotin Labeling Kit (Cosmo Bio)) VH: DVQLQESGPGLVKPSQSLSLTCTVTGYSIISDYAWNWIRQFPGNKMEWMGYILYSGTTNYNPSLKSRISITRDTSKNQFFLQLNSVTTEDTATYYCARRTYYDYDYYGMDYWGQGTSVTVSS VL: DVLMTQIPLSLPVSLGDQASISCRSSQTIVHSLGNTYLEWYLQKPGQSPKLLIYKVSNRFSGVPDRFIGSGSGTDFTLKITRVEAEDLGVYYCFQGSHVPWTFGGGTKLEIK

— publication PMC7688132, “Preparation and characterization of monoclonal antibodies recognizing two CD4 isotypes of Microminipigs” (PLoS ONE, 2020)
